What was measured:
[1] = target: Human serum albumin (HSA) (Homo sapiens, UniProt P02768 P02768:25-609); assay: surface acoustic wave sensor; 5'-thiol aptamer; conditions: label: 5'-biotin, 5'-amino or 5'-thiol
Method: (§1) (11) A hemoglobin sample having been diluted into 11.6 μM with HBS-P(+MgCl2) was introduced through the passage 15 to the sensing element 3. Then, the amount of phase change occurring after 5 minutes of reaction was measured. Similarly, measurement was performed with employing human serum albumin (HSA) as a sample. Further, as for the hemoglobin sample, measurement was performed on samples of various concentrations.

[2] = target: Hemoglobin (Hb), full length (Homo sapiens, UniProt P69905;P68871 P69905:2-142,P68871:2-147); assay: surface acoustic wave sensor phase change; 11.6 uM Hb; signal rises with Hb concentration; HBS-P + MgCl2; conditions: tags: Abcam ab77858; chain copies: 2,2; label: 5'-biotin, 5'-amino or 5'-thiol
Method: as §1

Human serum albumin (HSA), sequence (P02768 25-609, one chain of several): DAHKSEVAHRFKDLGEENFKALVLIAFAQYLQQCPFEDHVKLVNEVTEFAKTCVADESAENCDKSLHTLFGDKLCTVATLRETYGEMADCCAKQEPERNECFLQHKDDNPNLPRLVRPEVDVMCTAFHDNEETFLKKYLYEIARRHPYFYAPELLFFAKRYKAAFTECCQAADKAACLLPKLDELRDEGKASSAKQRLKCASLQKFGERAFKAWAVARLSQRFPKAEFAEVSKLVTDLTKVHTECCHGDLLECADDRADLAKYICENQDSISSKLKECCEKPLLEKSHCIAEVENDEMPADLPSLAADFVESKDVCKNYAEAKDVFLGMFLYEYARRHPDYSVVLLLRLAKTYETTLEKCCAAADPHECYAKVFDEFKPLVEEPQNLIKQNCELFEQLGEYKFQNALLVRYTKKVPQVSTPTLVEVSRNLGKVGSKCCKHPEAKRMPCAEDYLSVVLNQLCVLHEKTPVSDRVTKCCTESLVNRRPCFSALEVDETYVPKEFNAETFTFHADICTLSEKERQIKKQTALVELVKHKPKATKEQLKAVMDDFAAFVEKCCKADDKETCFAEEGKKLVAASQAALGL
Hemoglobin (Hb), full length, sequence (P69905 2-142, chain 1 of 2): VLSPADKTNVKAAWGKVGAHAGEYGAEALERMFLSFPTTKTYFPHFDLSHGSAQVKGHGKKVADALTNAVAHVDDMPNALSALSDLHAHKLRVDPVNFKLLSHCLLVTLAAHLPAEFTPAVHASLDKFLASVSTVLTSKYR
Hemoglobin (Hb), full length, sequence (P68871 2-147, chain 2 of 2): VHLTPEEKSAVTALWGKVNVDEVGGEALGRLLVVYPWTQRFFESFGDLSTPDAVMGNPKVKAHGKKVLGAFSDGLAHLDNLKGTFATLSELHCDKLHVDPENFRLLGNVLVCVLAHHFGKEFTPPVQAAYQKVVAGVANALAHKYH

**Q.** Which results are given for CGUAUUACGGCAUUAUUAGGACCAAUGCUGAGUACG (ssRNA) [6R_28 partial (36-mer)]?
**A.** binding result [1]: no binding; binding result [2]: binds
